From patent publication US20150239980A1 (NEOTOPE BOSCIENCES, published 2015)

T1: recombinant hMCAM-His (human, UniProt P43121 24-559)
T1 construct: not shown: His tag
T1 chain: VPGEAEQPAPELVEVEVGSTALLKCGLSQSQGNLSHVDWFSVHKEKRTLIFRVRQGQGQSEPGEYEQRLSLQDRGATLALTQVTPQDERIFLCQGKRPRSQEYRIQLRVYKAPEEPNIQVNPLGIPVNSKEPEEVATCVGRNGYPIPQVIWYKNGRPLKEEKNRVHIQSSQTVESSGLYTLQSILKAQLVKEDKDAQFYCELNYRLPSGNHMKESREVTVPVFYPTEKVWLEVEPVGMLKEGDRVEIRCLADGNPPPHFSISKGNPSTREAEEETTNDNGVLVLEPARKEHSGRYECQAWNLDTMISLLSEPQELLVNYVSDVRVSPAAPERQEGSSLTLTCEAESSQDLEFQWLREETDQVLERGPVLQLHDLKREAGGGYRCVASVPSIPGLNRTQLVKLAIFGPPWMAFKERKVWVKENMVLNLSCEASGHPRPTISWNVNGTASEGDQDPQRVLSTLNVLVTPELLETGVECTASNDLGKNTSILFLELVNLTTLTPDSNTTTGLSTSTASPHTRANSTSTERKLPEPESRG

T2: human MCAM (melanoma cell adhesion molecule) expressed on transfected CHO cells (human, UniProt P43121 24-646)
T2 construct: also called hMCAM; CD146
T2 chain: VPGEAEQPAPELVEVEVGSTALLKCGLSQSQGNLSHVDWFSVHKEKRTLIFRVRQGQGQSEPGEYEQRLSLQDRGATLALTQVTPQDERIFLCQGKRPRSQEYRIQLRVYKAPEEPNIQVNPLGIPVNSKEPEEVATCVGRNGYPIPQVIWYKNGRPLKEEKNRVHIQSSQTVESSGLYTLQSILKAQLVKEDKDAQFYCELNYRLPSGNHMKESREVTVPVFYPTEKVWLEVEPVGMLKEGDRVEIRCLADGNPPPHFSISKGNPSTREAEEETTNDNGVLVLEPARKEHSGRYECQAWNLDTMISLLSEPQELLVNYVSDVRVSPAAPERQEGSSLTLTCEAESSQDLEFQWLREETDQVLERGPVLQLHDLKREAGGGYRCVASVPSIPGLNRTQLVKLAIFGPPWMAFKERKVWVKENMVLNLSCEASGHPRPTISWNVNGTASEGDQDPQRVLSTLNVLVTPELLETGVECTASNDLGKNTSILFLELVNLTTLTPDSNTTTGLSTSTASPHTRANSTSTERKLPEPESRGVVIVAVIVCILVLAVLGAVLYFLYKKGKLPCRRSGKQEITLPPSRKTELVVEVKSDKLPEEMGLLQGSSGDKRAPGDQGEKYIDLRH


Tests used:
recombinant hMCAM-His [1] = target: T1, recombinant hMCAM-His; assay: summary of ForteBio and competitive ELISA on hMCAM-His; vs rodent 1749
Experimental: (§1) ELISA plates were coated with recombinant hMCAM-His, and blocked with casein buffer to prevent non-specific binding. Biotinylated rodent or chimeric antibody was added at a subsaturating concentration, in the presence or absence of 3× increasing concentrations of unlabeled competitor (humanized antibody, rodent, or chimeric). After washing to remove unbound antibody, streptavidin HRP was added to allow detection of the biotinylated antibody. The ELISA was developed with TMB substrate and the OD450 was measured. The IC50 of the unlabeled competitor was determined using the GraphPad Prism5 software.
(§2) The affinities were measured using the ForteBio Octet Red. Anti-human Fc sensors were used to capture the humanized antibodies, and several concentrations of hMCAMHis analyte were used to determine the affinity using a 1:1 fitting model.

recombinant hMCAM-His [2] = target: T1, recombinant hMCAM-His; assay: ForteBio Octet Red, hMCAM-His analyte; Forte column 1; vs rodent 1749
Experimental: as §2

[3] = target: T2, human MCAM (melanoma cell adhesion …); assay: laminin/FACS on hMCAM CHO cells, competitor laminin 411; Expt#1; vs rodent 1749
Experimental: (§3) Following incubation for 30-45 minutes, the cells were washed and anti-laminin conjugated to AF650 (NovusBio) was added to detect the bound laminin. The cells were run on a flow cytometer to measure the laminin binding signal.

[4] = target: T2, human MCAM (melanoma cell adhesion …); assay: laminin/FACS on hMCAM CHO cells, competitor laminin 411; Expt#2; vs rodent 1749
Experimental: as §3

[5] = target: T2, human MCAM (melanoma cell adhesion …); assay: summary of laminin blocking assay on hMCAM CHO cells, competitor laminin 411; vs rodent 1749
Experimental: as §3

recombinant hMCAM-His [6] = target: T1, recombinant hMCAM-His; assay: competitive ELISA on hMCAM-His, competitor biotinylated rodent or chimeric 1749; vs rodent 1749
recombinant hMCAM-His [7] = target: T1, recombinant hMCAM-His; assay: ForteBio Octet Red, hMCAM-His analyte; Expt. #1; vs rodent 2107
Experimental: as §2

recombinant hMCAM-His [8] = target: T1, recombinant hMCAM-His; assay: competitive ELISA on hMCAM-His, competitor biotinylated rodent or chimeric 2107; Expt. #1; vs rodent 2107
Experimental: as §1

recombinant hMCAM-His [9] = target: T1, recombinant hMCAM-His; assay: ForteBio Octet Red, hMCAM-His analyte; Forte column 1; vs rodent 2107
Experimental: as §2

recombinant hMCAM-His [10] = target: T1, recombinant hMCAM-His; assay: ForteBio Octet Red, hMCAM-His analyte; Forte column 2; vs rodent 2107
Experimental: as §2

[11] = target: T2, human MCAM (melanoma cell adhesion …); assay: laminin/FACS on hMCAM CHO cells, competitor laminin 411; Expt#1; vs rodent 2107
Experimental: as §3

recombinant hMCAM-His [12] = target: T1, recombinant hMCAM-His; assay: competitive ELISA on hMCAM-His, competitor biotinylated rodent or chimeric 2107; vs rodent 2107
Experimental: as §1

[13] = target: T2, human MCAM (melanoma cell adhesion …); assay: laminin/FACS on hMCAM CHO cells, competitor laminin 411; Expt#2; reference row with 1.0 is chimeric 2107
Experimental: as §3

recombinant hMCAM-His [14] = target: T1, recombinant hMCAM-His; assay: competitive ELISA on hMCAM-His, competitor biotinylated rodent or chimeric 1749; Expt. #2; vs rodent 1749
Experimental: as §1

Binder | fold reduction in affinity compared to the rodent (recombinant hMCAM-His [1]) | fold over rodent (Forte affinity) (recombinant hMCAM-His [2]) | fold over rodent (blocking, laminin/FACS) [3] | fold over rodent (blocking, laminin/FACS) [4] | fold reduction in potency compared to the rodent [5] | fold over rodent (competitive ELISA) (recombinant hMCAM-His [6]) | also measured
h1749VH1 + h1749VL2 (antibody, human IgG1, V domains shown) VH: EVQLVESGGGLVQPGGSLRLSCAASGFTFSSYIMSWVRQAPGKGLEWVATISSGGSSTYYPDSVKGRFTISRDNAKNSLYLQMNSLRAEDTAVYYCTRDDDYDVKVFAYWGQGTMVTVSS VL: DIVMTQSPDSLAVSLGERATINCKSSRSLLNSRIRKNYLAWYQQKPGQPPKLLIYWASTRESGVPDRFTGSGSGTDFTLTISSLQAEDVAVYYCKQSYNLLTFGQGTKVEIK | < 2 fold | 2.5 fold | 1.1 fold | 1.2 fold | < 2 fold | 1 fold | –
h1749VH2 + h1749VL1 (antibody, human IgG1, V domains shown, also called h1749VH2VL1) VH: EVQLVESGGGLVQPGGSLRLSCAASGFTFSSYIMSWVRQAPGKRLEWVATISSGGSSTYYPDSVKGRFTISRDNAKNSLYLQMNSLRAEDTAVYYCTRDDDYDVKVFAYWGQGTMVTVSS VL: DIVMTQSPDSLAVSLGERATINCKSSRSLLNSRIRKNYLAWYQQKPGQPPKLLIYWASTRESGVPDRFSGSGSGTDFTLTISSLQAEDVAVYYCKQSYNLLTFGQGTKVEIK | < 2 fold | 1.2 fold | 1.5 fold | 1.8 fold | < 2 fold | 1 fold | –
h2107_VH4 + h2107_VL2 (antibody, human IgG1, V domains shown) VH: QVTLKESGPVLVKPTETLTLTCTVSGFSLTSSGVSWVRQPPGKALEWIAAISSGGSTYYNSAFKSRLTISPDTSKSQVVLTMTNMDPVDTATYYCARHRPFYFDYWGQGTLVTVSS VL: DIQMTQSPSSLSASVGDRVTITCKGSQNIYKSLAWFQLKPGKVPKLLIYDANSLQTGIPSRFSGSGSGTDFTLTISSLQPEDVATYYCQQYYSGYTFGGGTKVEIK | – | – | – | – | – | – | fold over rodent (Forte affinity) (recombinant hMCAM-His [7]): 5.59 fold; fold over rodent (competitive ELISA) (recombinant hMCAM-His [8]): 11.7 fold
h2107_VH6 + h2107_VL2 (antibody, human IgG1, V domains shown) VH: QVTLKESGPVLVKPTETLTLTCTVSGFSLTSNAVSWVRQPPGKALEWIAAISSGGSTYYNSAFKSRLTISRDTSKSQVVLTMTNMDPVDTATYYCARHRPFYFDYWGQGTLVTVSS VL: DIQMTQSPSSLSASVGDRVTITCKGSQNIYKSLAWFQLKPGKVPKLLIYDANSLQTGIPSRFSGSGSGTDFTLTISSLQPEDVATYYCQQYYSGYTFGGGTKVEIK | – | – | – | – | – | – | fold over rodent (Forte affinity) (recombinant hMCAM-His [9]): 5.2 fold; fold over rodent (Forte affinity) (recombinant hMCAM-His [10]): 5.5 fold; fold over rodent (blocking, laminin/FACS) [11]: 4.8 fold; fold over rodent (competitive ELISA) (recombinant hMCAM-His [12]): 3.5 fold; fold over rodent (blocking, laminin/FACS) [13]: 2.3 fold
chimeric 1749 TM (antibody, V domains shown) VH: DVKLVESGGDLVKPGGSLKLSCAASGFTFSSYIMSWVRQTPEKRLEWVATISSGGSSTYYPDSVKGRFTISRDNAKNTLYLQMSSLKSEDTAMYYCTRDDDYDVKVFAYWGQGTLVTVSA VL: DIVMSQSPSSLAVSAGEKVTMNCKSSRSLLNSRIRKNYLAWYQQKPGQSPKLLIYWASTRESGVPDRFTGSGSGTDFTLTISSVQAEDLAVYYCKQSYNLLTFGAGTKLELK | – | – | – | – | – | – | fold over rodent (competitive ELISA) (recombinant hMCAM-His [14]): 1.07 fold
